Source: article PMC12912723 (2026)

How the values were obtained:
[1] = biological target: biotinylated PcrV (Pseudomonas aeruginosa, UniProt G3XD49 1-294, biotin); assay: BLI
[2] = biological target: T1, PscF from strain PAO1 (Pseudomonas aeruginosa, UniProt P95434 1-85); assay: ELISA; competition with biotinylated P5G10
T1 chain: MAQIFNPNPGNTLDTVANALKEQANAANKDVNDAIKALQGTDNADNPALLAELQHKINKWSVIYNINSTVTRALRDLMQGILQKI

B1: P5B3 (human monoclonal antibody, IgG1) (antibody, V domains shown)
VH: EVQLVESGGGIVQPGGSLRLSCAASGFTFSSYWMHWVRQAPGKGLVWVSRINSDGSIINYADSVKGRFTISRDNAKKTLHLQMNSLRAEDTAVYYCAKDGVYDALDIWGQGTMVTVSS
VL: SYELTQPPSVSVSPGQTARITCSADALPNQYTYWYQQKPGQAPVLIMYKDSERPSGIPERFSGSSSGTTVTLTISGVQAEDEADYYCQSTDSRGTYVVFGGGTKLTVL
Question: For B1, which Kd [1] is on record?
Answer: 23.9 pM

B2: P5G10 (human anti-PscF monoclonal antibody) (antibody, V domains shown)
VH: VQLQQWGAGLLKPSETLSLTCAVYGGSFSDYYWTWIRQAPGKGLEWIGENRHRGTTNYNPSLKGRVTISVDTSKNQFTLKVTSVTAADTAVYFCARQRGSSGGAPSGLDVWGQGTTVTVSS
VL: QSVLTQPPSASGTPGQRVTISCSGASSNIGTNYVFWYQQFPGTAPKLLIYRNGHRPSGVPDRFSGSKSGASASLAISGLRSDDEADYYCATWDDSLSSQVFGGGTKLTVL
Question: B2 was tested. Which IC50 [2] did it give?
Answer: 0.46 µg/mL
